Source: the RNAGym collection of RNA variant scans (doi:10.1073/pnas.2313332121)

B1: TPR t1 (parent)
chain: GACCAAUCUGCCCUCAGAGCUCGAGAACAUCUUCGGAUGCAGAGGAGGCAGGCUUCGGUGGCGCGAUAGCGCCAACGUCCUCAACCUCCAAUGCAUCCCACCACAUGAUGAUGCCUGAAGAGCCUUGGUUUUUUG

Variants of: B1
Test: polymerase ribozyme fitness, log enrichment relative to wild type (log ratio); higher = more active; in vitro selection for triplet polymerase activity
Outline: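 Mutant libraries of each subunit of a heterodimeric triplet polymerase ribozyme were built by PCR and transcribed. Each library went through one round of in vitro selection in triplicate: annealing with biotinylated primer, partner subunit and triplets, frozen incubation at −7 °C, gel excision of extended constructs, streptavidin-bead capture and RT-PCR. Input and output libraries were Illumina-sequenced; only genotypes with ≥10 input reads and ≥1 read per output were kept. Fitness is log2(genotype enrichment/wild-type enrichment), using inverse-variance-weighted replicate averages.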

| Variant | polymerase ribozyme fitness (log ratio) |
| --- | --- |
| C94U A95G | -0.3 |
| C94U A108U C114U U131G | -7.59 |
| C94U C104U | -0.577 |
| C94U G110U | -2.05 |
| C94U G113U | -2.09 |
| C94U G117C U130A | -6.35 |
| C94U G128U | -1.7 |
| C94U U96A | -1.02 |
| C94U U116C G128U | -3.48 |
| A95C C97U | -2.11 |
| A95C G107A | -7.02 |
| A95C G113C C124G | -1.76 |
| A95C U109A | -7.08 |
| A95C U109A U112C | -4.49 |
| A95G A103C G120U G135U | -6.78 |
| A95G A111C G113A A119C G120C | -3.77 |
| A95G C114G | -3.45 |
| A95G U109C | -5.61 |
| A95G U112C C124U | 1.01 |
| A95G U116A C124U | -0.576 |
| A95U C114A | -1.43 |
| A95U C115A | -1.22 |
| A95U G113A | -2.53 |
| A95U G113A G127A | -2.73 |

| Variant | polymerase ribozyme fitness (log ratio) |
| --- | --- |
| A95U G120A | -0.385 |
| U96A A121C U126A | -0.501 |
| U96A C99G G110C | -6.97 |
| U96A C104U U132A | -0.322 |
| U96A C114U | -3.4 |
| U96A G110U | -2.56 |
| U96A G113A C115A G120C | -3.71 |
| U96A G117C | -5.1 |
| U96A G128U | -1.89 |
| U96A U106A | -0.585 |
| U96A U116G U130A | -3.12 |
| U96C C123G G127C | -0.432 |
| U96G A100U C104U | -0.962 |
| U96G C102U | -2.86 |
| U96G C114U | -2.28 |
| U96G G117U | -2.13 |
| U96G G127A | -2.63 |
| U96G U106C | -1.3 |
| C97A A105G | -5.98 |
| C97A C104A | -5.08 |
| C97A C124A | -2.9 |
| C97A U129A | -4.83 |
| C97G A118U U126A | -5.69 |
| C97G A121U | -2.07 |

| Variant | polymerase ribozyme fitness (log ratio) |
| --- | --- |
| C97G C115G | -3.69 |
| C97G G120U U126C | -4.9 |
| C97U A103U G113C C115A U116A | -6.04 |
| C97U C101U U116G A118G | -4.15 |
| C97U C115U | -2.49 |
| C97U C124U | 0.498 |
| C97U G110C | -3.29 |
| C97U G110U A111G | -3.06 |
| C97U G117C | -4.37 |
| C97U G120U U130C | -0.251 |
| C97U U112G | -0.123 |
| C98A | -5.14 |
| C98A C99A | -6.47 |
| C98A C114U | -6.3 |
| C98A C114U C123G U131C | -5.24 |
| C98A C124G G128A U133G | -6.31 |
| C98A G120C | -4.15 |
| C98A U133G | -6.12 |
| C98G | -5.78 |
| C98G G120A | -4.76 |
| C98U | -1.2 |
| C98U C102A | -5.43 |
| C98U C102A A111G A121G G122A | -5.08 |
| C98U C114A | -3.47 |

| Variant | polymerase ribozyme fitness (log ratio) |
| --- | --- |
| C98U C123U | -1.28 |
| C98U C124G | -0.72 |
| C98U G135C | -0.757 |
| C98U U106G U133G | -2.9 |
| C98U U129G | -2.41 |
| C99A A121G | -4.75 |
| C99A C124U | -4.66 |
| C99G A121U | -6.54 |
| C99G G110C | -7.23 |
| C99G U112C U133A | -6.59 |
| C99U A118G | -2.48 |
| C99U C102G | -6.32 |
| C99U C123G | -1.13 |
| C99U C124A | -1.1 |
| C99U G110U A121G | -5.37 |
| C99U G122U | -3.2 |
| C99U U131C | -2.72 |
| C99U U131G | -3.59 |
| C99U U132A | -2.96 |
| A100C | -0.919 |
| A100C C123A | -0.801 |
| A100C G110U U112A | -5.07 |
| A100C G120A G122A | -1.28 |
| A100C G120U U125C | -0.56 |

| Variant | polymerase ribozyme fitness (log ratio) |
| --- | --- |
| A100C G122A | -1.49 |
| A100C U112G U116A | -4.36 |
| A100C U130G | -0.881 |
| A100G | -2.32 |
| A100U | -0.595 |
| A100U C115U | -2.94 |
| A100U G110U | -2.67 |
| A100U G113A | -1.88 |
| A100U G120A G127C U131A | -2.13 |
| A100U G128A | -2.05 |
| A100U U126G G135U | -2.69 |
| C101A A111G | 0.362 |
| C101A G110A C123A | -3.51 |
| C101A G120C | -0.0201 |
| C101A U109A A111G G120U C124U | -6.02 |
| C101A U116A | -3.39 |
| C101G A121U | -0.28 |
| C101G C104U | -2.98 |
| C101G C114U | -3.32 |
| C101G G120A G122C | -2.36 |
| C101G G135C | -1.41 |
| C101G U112C | -0.331 |
| C101U A103U G113U | -7.03 |
| C101U A121G | 1.57 |

| Variant | polymerase ribozyme fitness (log ratio) |
| --- | --- |
| C101U C114G | -3.89 |
| C101U C115U C124U | -0.886 |
| C101U G128A | -2.16 |
| C101U U125A | -0.975 |
| C101U U129A | -1.62 |
| C101U U129G U130C | 0.135 |
| C102A A111C G120C | -3.12 |
| C102A A118G | -2.42 |
| C102A C124U | 0.448 |
| C102A G113C U126C | -4.92 |
| C102A G117C | -6.66 |
| C102A G127A | -3.45 |
| C102A G128A | -4.69 |
| C102A U109G | -2.56 |
| C102G A111C A118C U129C | -5.54 |
| C102G U112A C123U G127A | -5.25 |
| C102G U112A G127U | -4.33 |
| C102U A111U U129C | -6.46 |
| C102U A118G | -1.73 |
| C102U C104A U130C | -0.457 |
| C102U C114G C124G | -2.64 |
| C102U C124U | -0.914 |
| C102U G110U | -4.26 |
| C102U G113A U129A | -3.17 |

| Variant | polymerase ribozyme fitness (log ratio) |
| --- | --- |
| C102U G117U | -4.91 |
| C102U G120U | -0.992 |
| C102U G122U | -1.26 |
| C102U U130C | -1.87 |
| A103C C104U U116C | -6.48 |
| A103C C123G | -2.94 |
| A103C U133G | -4.45 |
| A103G A118G | -4.56 |
| A103G C114U | -3 |
| A103G G110A | -5.82 |
| A103G G110U | -3.83 |
| A103G G113A | -4.15 |
| A103G G117A | -4.42 |
| A103U A119U | -5.64 |
| A103U C124G | -3.17 |
| A103U G113A U116A A121U | -5.45 |
| C104A A111U | -3.1 |
| C104A C114G G127C | -6.1 |
| C104A C114U G127A U131A | -6.47 |
| C104A C115A | -0.858 |
| C104A C123U | -0.0302 |
| C104A G110A | -3.18 |
| C104A G120A | -0.701 |
